Assay results as given in the supplement of paper PMC9112550, “Optimization of the antimicrobial peptide Bac7 by deep mutational scanning” (BMC Biology, 2022).

test system: Escherichia coli TOP10; experiment: shrunken log2 fold change of peptide-encoding DNA abundance (4.5 h post-induction vs induction); higher = less antimicrobial activity (less host growth inhibition); conditions: time post-induction: 4.5 h; library: site-saturation at positions 5, 18, 19, 20
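Note: peptides expressed intracellularly from a pBAD plasmid library in pooled LB shake-flask culture, induced with 0.3% L-arabinose, DNA abundance read by NGS, three biological replicates, DESeq2 with apeglm shrinkage.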

Compared with RRIRCRPPRLPRPRPRPTIDPRP, RRIRARPPRLPRPRPRPTEAPRP is higher in “shrunken log2 fold change” value: 0.0362 for the first, 0.453 for the second.

Compared with RRIRERPPRLPRPRPRPLIMPRP, RRIRGRPPRLPRPRPRPGMSPRP is higher in “shrunken log2 fold change” value: -0.781 for the first, 0.417 for the second.

RRIRNRPPRLPRPRPRPNEHPRP and RRIRERPPRLPRPRPRPLVMPRP are within 0.2 log units of each other in “shrunken log2 fold change” value: -0.071 for the first, -0.0346 for the second.

Compared with RRIRYRPPRLPRPRPRPINDPRP, RRIRPRPPRLPRPRPRPQPEPRP is higher in “shrunken log2 fold change” value: -0.0981 for the first, 0.47 for the second.

First: RRIRHRPPRLPRPRPRPVNPPRP
Second: RRIRQRPPRLPRPRPRPDHTPRP
The “shrunken log2 fold change” value of the first is lower: -0.307 for the first, -0.0589 for the second.

Going from RRIRTRPPRLPRPRPRPLYLPRP to RRIRTRPPRLPRPRPRPATLPRP, the “shrunken log2 fold change” value rises from -0.558 to -0.197.

Compared with RRIRGRPPRLPRPRPRPSSNPRP, RRIRDRPPRLPRPRPRPDDLPRP is lower in “shrunken log2 fold change” value: 0.369 for the first, 0.00447 for the second.

Compared with RRIRTRPPRLPRPRPRPCAKPRP, RRIRMRPPRLPRPRPRPCCRPRP is lower in “shrunken log2 fold change” value: 0.423 for the first, 0.0467 for the second.

RRIRPRPPRLPRPRPRPCFRPRP and RRIRLRPPRLPRPRPRPWVKPRP are within 0.2 log units of each other in “shrunken log2 fold change” value: 0.00938 for the first, -0.0122 for the second.

RRIRLRPPRLPRPRPRPRMHPRP and RRIRNRPPRLPRPRPRPCYMPRP are within 0.2 log units of each other in “shrunken log2 fold change” value: 0.136 for the first, 0.0787 for the second.

RRIRPRPPRLPRPRPRPSQFPRP and RRIRDRPPRLPRPRPRPWYLPRP are within 0.2 log units of each other in “shrunken log2 fold change” value: -0.0669 for the first, -0.11 for the second.

Compared with RRIRMRPPRLPRPRPRPCLMPRP, RRIRGRPPRLPRPRPRPKFAPRP is higher in “shrunken log2 fold change” value: 0.0359 for the first, 0.684 for the second.

First: RRIRCRPPRLPRPRPRPMDVPRP
Second: RRIRYRPPRLPRPRPRPFFKPRP
The “shrunken log2 fold change” value of the first is higher: -0.00136 for the first, -0.518 for the second.

RRIRPRPPRLPRPRPRPHNRPRP and RRIRPRPPRLPRPRPRPIRSPRP are within 0.2 log units of each other in “shrunken log2 fold change” value: -0.0456 for the first, 0.00396 for the second.

Compared with RRIRDRPPRLPRPRPRPVNHPRP, RRIRIRPPRLPRPRPRPMFEPRP is higher in “shrunken log2 fold change” value: -0.514 for the first, -0.0768 for the second.

Going from RRIRPRPPRLPRPRPRPHKEPRP to RRIRFRPPRLPRPRPRPDCIPRP, the “shrunken log2 fold change” value falls from 0.163 to -0.349.

RRIRVRPPRLPRPRPRPPIVPRP and RRIRRRPPRLPRPRPRPCVEPRP are within 0.2 log units of each other in “shrunken log2 fold change” value: 0.0432 for the first, -0.0155 for the second.

Compared with RRIRVRPPRLPRPRPRPRLAPRP, RRIRHRPPRLPRPRPRPRYQPRP is lower in “shrunken log2 fold change” value: 0.684 for the first, -1.18 for the second.

RRIRKRPPRLPRPRPRPCMPPRP and RRIRQRPPRLPRPRPRPRVWPRP are within 0.2 log units of each other in “shrunken log2 fold change” value: 0.0752 for the first, 0.163 for the second.

Compared with RRIRNRPPRLPRPRPRPDDCPRP, RRIRHRPPRLPRPRPRPAWFPRP is higher in “shrunken log2 fold change” value: -0.108 for the first, 0.211 for the second.

Compared with RRIRGRPPRLPRPRPRPWKHPRP, RRIRPRPPRLPRPRPRPVYHPRP is lower in “shrunken log2 fold change” value: -0.161 for the first, -0.388 for the second.

First: RRIRCRPPRLPRPRPRPQRLPRP
Second: RRIRFRPPRLPRPRPRPYHPPRP
The “shrunken log2 fold change” value of the first is higher: 0.44 for the first, -0.58 for the second.

Compared with RRIRWRPPRLPRPRPRPRVCPRP, RRIRTRPPRLPRPRPRPKILPRP is lower in “shrunken log2 fold change” value: 0.347 for the first, -0.0614 for the second.

Compared with RRIRLRPPRLPRPRPRPMAYPRP, RRIRARPPRLPRPRPRPSPAPRP is higher in “shrunken log2 fold change” value: -0.0987 for the first, 0.616 for the second.

First: RRIRIRPPRLPRPRPRPPCDPRP
Second: RRIRRRPPRLPRPRPRPQQDPRP
The “shrunken log2 fold change” value of the first is lower: -0.48 for the first, 0.0793 for the second.

First: RRIRDRPPRLPRPRPRPSGFPRP
Second: RRIRVRPPRLPRPRPRPWIFPRP
The “shrunken log2 fold change” value of the first is higher: 0.029 for the first, -0.389 for the second.

First: RRIRYRPPRLPRPRPRPSWLPRP
Second: RRIRKRPPRLPRPRPRPEIWPRP
The “shrunken log2 fold change” value of the first is lower: -0.78 for the first, 2.45 for the second.

RRIRERPPRLPRPRPRPSGFPRP and RRIRARPPRLPRPRPRPVFVPRP are within 0.2 log units of each other in “shrunken log2 fold change” value: 0.0785 for the first, 0.179 for the second.

First: RRIRTRPPRLPRPRPRPTVKPRP
Second: RRIRERPPRLPRPRPRPTYDPRP
The “shrunken log2 fold change” value of the first is higher: 3.07 for the first, -0.528 for the second.

RRIRHRPPRLPRPRPRPLNPPRP and RRIRLRPPRLPRPRPRPCNTPRP are within 0.2 log units of each other in “shrunken log2 fold change” value: -0.204 for the first, -0.186 for the second.

First: RRIRGRPPRLPRPRPRPWFSPRP
Second: RRIRYRPPRLPRPRPRPANVPRP
The “shrunken log2 fold change” value of the first is lower: -0.246 for the first, -0.00291 for the second.

Compared with RRIRTRPPRLPRPRPRPDHCPRP, RRIRCRPPRLPRPRPRPGFEPRP is higher in “shrunken log2 fold change” value: -0.116 for the first, 0.244 for the second.

RRIRPRPPRLPRPRPRPHGLPRP and RRIRWRPPRLPRPRPRPVKSPRP are within 0.2 log units of each other in “shrunken log2 fold change” value: 0.026 for the first, 0.0342 for the second.

Compared with RRIRDRPPRLPRPRPRPCNHPRP, RRIRDRPPRLPRPRPRPPAVPRP is higher in “shrunken log2 fold change” value: -0.218 for the first, 0.312 for the second.

First: RRIRQRPPRLPRPRPRPRHTPRP
Second: RRIRPRPPRLPRPRPRPAVWPRP
The “shrunken log2 fold change” value of the first is lower: -0.147 for the first, 0.602 for the second.

RRIRLRPPRLPRPRPRPKSVPRP and RRIRERPPRLPRPRPRPPQFPRP are within 0.2 log units of each other in “shrunken log2 fold change” value: 0.0155 for the first, -0.151 for the second.

Compared with RRIRSRPPRLPRPRPRPLMTPRP, RRIRKRPPRLPRPRPRPRDKPRP is lower in “shrunken log2 fold change” value: 0.653 for the first, 0.116 for the second.

With RRIRRRPPRLPRPRPRPLMIPRP the “shrunken log2 fold change” value was -0.258.
